Data reported in patent US20250027068.

B1: PRT-570 (protein)
chain: MANQEIRYSEATPSHITSVWTKGVTPPEQFIQNEDVLHAPYIANQGWYDITKTFNGKDDLLCGAATAGNMLHWWFDQNKEQIEAYLKKHPEKQKINFNGEQMFDVKEAIDTKDSQTDSALFNYFKDKAFPYLSTKHLGVFPDHVIDMFINGYRLSLTNHGPTPVKEQTKDPRGGIFDAVFTRGDQSKLLTSRHDFKEKTLKEISQLIKQELTEGKALGLSHTYANVRINHVINLWGADFNAEGNLEAIYVTDSDSNASIGMKKYYVGVNSAGKVAISAKEIEGDNIGAQVLGLFTLSTGQDIWQQTNLEHHHHHH
B2: PRT-557 (protein)
chain: MANQEIRYSEEDGKTITSVWTKGVTPPTDFQKNEDVYHAPYVANQGWYDITKTFNGKDDLLCGAATAGNMLHWWFDQNKEEIERYLKKHPEKQKINFNGEQMFDVKEAIDTKDSQTDSALFEYFKDKAFPYLSTKHLGVFPDHVIDMFINGYRLSLTNHGPTPVKDGTKDPRGGIFDAVFTRGDQTKLLTERHDFKEKTLNEISDLIKQELQEGKALGLSHTYANVRINHVINLWGADFDSEGNLEAIYVTDSDSNASIGMKKYYVGVNSAGKVAISAKEIEDDNIGAQVLGLFTLSTGKDIWEQTNLEHHHHHH
B3: PRT-628 (protein)
chain: MQITSVWTKGVTPLTPEQFRYNNEDVIHAPYLAHQGWYDITKAFDGKDNLLCGAATAGNMLHWWFDQNKEEIEAYLKKHPEKQKIIFNNQELFDLKAAIDTKDSQTNSQLFNYFRDKAFPNLSARQLGVMPDLVLDMFINGYYLNVFKTQSTDVNRPYQDKDKRGGIFDAVFTRGDQTTLLTARHDLKNKGLNDISTIIKQELTEGRALALSHTYANVSISHVINLWGADFNAEGNLEAIYVTDSDANASIGMKKYFVGINAHGHVAISAKKIEGENIGAQVLGLFTLSSGQDIWQQLSLEHHHHHH
B4: PRT-652 (protein)
chain: MQITSVWTKGVTPLTPEQFRYNNEDVIHAPYLAHQGWYDITKAFDGKDNLLCGAATAGNMLHWWFDQNKTEIEAYLSKHPEKQKIIFNNQELFDLKAAIDTKDSQTNSQLFNYFRDKAFPNLSARQLGVMPDLVLDMFINGYYLNVFKTQSTDVNRPYQDKDKRGGIFDAVFTRGDQTTLLTARHDLKNKGLNDISTIIKQELTEGRALALSHGTANGGYSHVINLWGADFNAEGNLEAIYVTDSDANASIGMKKYFVGINAHGHVAISAKKIEGENKGAQVLGLFTLSSGKDIWQKLSLEHHHHHH
B5: PRT-653 (protein)
chain: MQITSVWTKGVTPLTPEQFRYNNEDVIHAPYLAHQGWYDITKAFDGKDNLLCGAATAGNMLHWWFDQNKTEIEAYLSKHPEKQKIIFNNQELFDLKAAIDTKDSQTNSQLFNYFRDKAFPNLSARQLGVMPDLVLDMFINGYYLNVFKTQSTDVNRPYQDKDKRGGIFDAVFTRGDQTTLLTARHDLKNKGLNDISTIIKQELTEGRALALSHTYGNVRSSHVINLWGADFNAEGNLEAIYVTDSDANASIGMKKYFVGINAHGHVAISAKKIEGENVGAQVLGLFTLSSGKDIWQKLSLEHHHHHH
B6: PRT-656 (protein)
chain: MQITSVWTKGVTPLTPEQFRYNNEDVIHAPYLAHQGWYDITKAFDGKDNLLCGAATAGNMLHWWFDQNKTEIEAYLSKHPEKQKIIFNNQELFDLKRAINDKDSQQNSELFNYFRDKAFPNLSARQLGVMPDLVLDMFINGYYLNVFKTQSTDVNRPYQDKDKRGGIFDAVFTRGDQTTLLTARHDLKNKGLNDISTIIKQELTEGRALALSHTYANVSISHVINLWGADFNAEGNLEAIYVTDSDANASIGMKKYFVGINAHGHVAISAKKIEGENIGAQVLGLFTLSSGKDIWQKLSLEHHHHHH
B7: PRT-648 (protein)
chain: MQITSVWTKGVTPLTPEQFRYNNEDVIHAPYLAHQGWYDITKAFDGKDNLLCGAATAGNMLHWWFDQNKTEIEAYLSKHPEKQKIIFNNQYLFDLKAAIDTKDSQTNSQLFNYFRDKAFGNLSARQLGVMPDLVLDMFINGYYLNVNKTQSTDVNRPYQKPDKRGGIFDAVFTRGDQTTLLTARHDLKNKGLNDISTIIKQELTEGRALALSHTYANVSISHVINLWGADFNAEGNLEAIYVTDSDANASIGMKKYFVGINAHGHVAISAKKIEGENIGAQVLGLFTLSSGKDIWQKLSLEHHHHHH
B8: PRT-679 (protein)
chain: MQITSVWTKGVTPLTPEQFRYNNEDVIHAPYLAHQGWYDITKTFDGKDNLLCGAATAGNMLHWWFDQNKTEIEAYLSKHPEKQKIIFNNQELFDLKEAINTKDSQTNSQLFNYFRDKAFPNLSARQLGVMPDLVLDMFINGYYLNVFKTQSTDVNRPYQDKDKRGGIFDAVFTRGDQTTLLTARHDLKNKGLNEISTIIKQELTEGKALALSHTYANVSISHVINLWGADFNAEGNLEAIYVTDSDANASIGMKKYFVGINAHGHVAISAKKIEGENIGAQVLGLFTLSSGKDIWQKLSLEHHHHHH
B9: PRT-664 (protein)
chain: MQITSVWTKGVTPLTPEQFRYNNEDVIHAPYLPHQGWYDITKAFDGKDNLLCGAATAGNMLHWWFDQNKTEIEAYLSKHPEKQKIIFNNQELFDLRAAINTKDSQTNSALFNYFRDKAFPNLSARQLGVMPDLVLDMFINGYYLNVFKTQSTDVNRPYQDKDKRGGIFDAVFTRGDQTTLLTARHDLKNKGLNDISTLIKQELTEGKALALSHTYANVSISHVINLWGADFNAEGNLEAIYVTDSDSDASIGMKKYYVGINASGHVAISAKKIEGENIGAQVLGLFTLSSGKDIWQKLSLEHHHHHH
B10: PRT-674 (protein)
chain: MQITSVWTKGVTPPTMEQFRYNNYDVFHAPYLPGQGWYDITKAFDGGDNLLCGAATAGNMLHWWFDQNKEEIEAYLSKYPEKQKIIFNNQELFDLRKAINSKDSQTNSELFNYFRDKAFGNLSARQKGVMPDLVLDMFINGYYLNLNKTQSTDVNRPYQDPDKRGGIFDDVFKEGDQTKLLTARHDLSNGGLDDISTIIKQELQSGRALALSHTYANVSYSHVINLWGADFDAEGNLEAIYVTDSDDDQSIGMKKYKVGKNASGHVRISAKKIEDENIGAQVLGLFTLSLGKEIWQKLSLEHHHHHH
B11: PRT-672 (protein)
chain: MQITSVWTKGVTPPTPEQFTYQNEDVFHAPYIANQGWYDITKTFNGKDNLLCGAATAGNMLHWWFDQNKTEIENYLKKHPEKQKIIFNNQEMFDLRKAINTKDSQTNSALFEYFRDKAFPNLSARQLGVMPDHVLDMFINGYYLNVTKTQSTDVNRPYQTKDKRGGIFDHVFTRGDQSKLLTARHDLKNKTLNEISDLIKQELTEGKALALSHTYANVRINHVINLWGADFDAEGNLEAIYVTDSDSNASIGMKKYFVGVNSSGKVAISAKKIEDDNIGAQVLGLFTLSSGQDIWEQLSLEHHHHHH
B12: PRT-84 (protein)
chain: MANQEIRYSEETPYTVTSVWTKGVTPPTQFIQGEDVFHAPYKANQGWYDITKTFNGKDNLLCGAATAGNMLHWWFDQNKEYIEAYLKKHPEKQKIMFGDQELLDVRKVINTKDSQTDSKLFNYFKDKAFPNLSARRLGVMPDLVLDMFINGYYLNVGKTQTTDVNRTYQEKDKRGGIFDAVFTRGDQSKLLTSRHDFKEKSLKEISDLIKKELTEGKALGLSHTYANVRINHVINLWGADFDSEGNLKAIYVTDSDSDASIGMKKYFVGVNSSGKVAISAKEIEEDNIGAQVLGLFTLSSGQDIWNQTN
B13: PRT-85 (protein)
chain: MANQEIRYSEVTPKTITSVWTKGVTPPADFTQGEDVFHAPYKPNQGWYDINKTFNGKDNLLCGAATAGNMLHWWFDQNKEQIEAYLKKHPEKQKIMFGDQELLDVRKAINTKDDQTDSKLFNYFKDKAFPNLSARRLGVMPDHVLDMFINGYRLNVTKTQTTDVNRTYQTKDKRGGFFDAVFTRGDQSKLLTNRHDFKEKNLKEISDLIKKELTEGKALGLSHTYANVRINHVINLWGADFDSEGNLKAIYVTDSDSNASIGMKKYYVGVNSAGKVAISAKEIKGENIGAQVLGLYTLSTGQDIWNQTN
B14: PRT-86 (protein)
chain: MANQEIRYSEEDPKHVTSVWTKGVTPPTDFTQGEDVLHAPYIANQGWYDITKTFNGKDDLLCGAATAGNMLHWWFDQNKEEIENYLKKHPEKQKIMFGDQELLDVRKVINTKDSQTNSKLFNYFREKAFPNLSARRLGVMPDLVLDMFINGYYLNVTKTQTTDVNRTYQTKDKRGGIFDAVFTRGDQTKLLTNRHDFKEKTLNEISDLIKQELQEGKALGLSHTYANVRINHVINLWGADFDSNGNLEAIYVTDSDANASIGMKKYFVGKNSAGKVAISAKEIKDDNIGAQVLGLFTLSTGQDIWNQTN

What follows are proteins tested against pooled human IgG (human IgG1,2,3 and 4).
B1 showed an Enzyme activity endpoint: Fab′2 of 551 ng/µL, an Enzyme activity endpoint: Fc of 126 ng/µL and an Enzyme activity endpoint: IgG of 0 ng/µL. For the same protein, the Enzyme activity endpoint: scIgG was 0 ng/µL.
In the case of B2, the Enzyme activity endpoint: Fab′2 is reported as 512 ng/µL, the Enzyme activity endpoint: Fc is reported as 410 ng/µL and the Enzyme activity endpoint: IgG is reported as 0 ng/µL. The Enzyme activity endpoint: scIgG was 194 ng/µL.
B3 was tested, and the Enzyme activity endpoint: Fab′2 was 852 ng/µL, the Enzyme activity endpoint: Fc was 465 ng/µL and the Enzyme activity endpoint: IgG was 0 ng/µL. For the same protein, the Enzyme activity endpoint: scIgG was 0 ng/µL.
In the case of B4, the Enzyme activity endpoint: Fab′2 is reported as 410 ng/µL, the Enzyme activity endpoint: Fc is reported as 0 ng/µL and the Enzyme activity endpoint: IgG is reported as 789 ng/µL. The Enzyme activity endpoint: scIgG was 12 ng/µL.
Protein B5 has an Enzyme activity endpoint: Fab′2 of 1350 ng/µL, an Enzyme activity endpoint: Fc of 0 ng/µL and an Enzyme activity endpoint: IgG of 2350 ng/µL. For the same protein, the Enzyme activity endpoint: scIgG was 0 ng/µL.
B6 gave an Enzyme activity endpoint: Fab′2 of 841 ng/µL, an Enzyme activity endpoint: Fc of 540 ng/µL and an Enzyme activity endpoint: IgG of 0 ng/µL. The Enzyme activity endpoint: scIgG was 319 ng/µL.
B7 was tested, and the Enzyme activity endpoint: Fab′2 was 182 ng/µL, the Enzyme activity endpoint: Fc was 206 ng/µL and the Enzyme activity endpoint: IgG was 417 ng/µL. It also gave an Enzyme activity endpoint: scIgG of 619 ng/µL.
For B8, the Enzyme activity endpoint: Fab′2 was 693 ng/µL, the Enzyme activity endpoint: Fc was 327 ng/µL and the Enzyme activity endpoint: IgG was 34 ng/µL. For the same protein, the Enzyme activity endpoint: scIgG was 54 ng/µL.
Protein B9 has an Enzyme activity endpoint: Fab′2 of 703 ng/µL, an Enzyme activity endpoint: Fc of 419 ng/µL and an Enzyme activity endpoint: IgG of 0 ng/µL. The Enzyme activity endpoint: scIgG was 0 ng/µL.
Work on B10 yielded an Enzyme activity endpoint: Fab′2 of 462 ng/µL, an Enzyme activity endpoint: Fc of 0 ng/µL and an Enzyme activity endpoint: IgG of 891 ng/µL. The Enzyme activity endpoint: scIgG was 12 ng/µL.
B11 showed an Enzyme activity endpoint: Fab′2 of 775 ng/µL, an Enzyme activity endpoint: Fc of 443 ng/µL and an Enzyme activity endpoint: IgG of 73 ng/µL. It also gave an Enzyme activity endpoint: scIgG of 0 ng/µL.
B12 showed an Enzyme Activity Endpoint Assay: Fab′2 of 8 ng/µL, an Enzyme Activity Endpoint Assay: Fc of 67 ng/µL and an Enzyme Activity Endpoint Assay: IgG of 27 ng/µL. It also gave an Enzyme Activity Endpoint Assay: scIgG of 51 ng/µL.
With B13 the Enzyme Activity Endpoint Assay: Fab′2 was 0 ng/µL, the Enzyme Activity Endpoint Assay: Fc was 0 ng/µL and the Enzyme Activity Endpoint Assay: IgG was 109 ng/µL. The Enzyme Activity Endpoint Assay: scIgG was 0 ng/µL.
With B14 the Enzyme Activity Endpoint Assay: Fab′2 was 4 ng/µL, the Enzyme Activity Endpoint Assay: Fc was 61 ng/µL and the Enzyme Activity Endpoint Assay: IgG was 45 ng/µL. For the same protein, the Enzyme Activity Endpoint Assay: scIgG was 53 ng/µL.
